Reference: PMC5766498 (Nature Communications, 2018)

Target: T1, Met1-linked diUb (M1-Ub2) (human, UniProt P0CG47 1-76; P0CG47 1-76)
T1 construct: ubiquitin, human, first (distal) moiety of the linear diUb; ubiquitin, human, second (proximal) moiety, its Met1 joined to Gly76 of the first; Expressed from a human M1-Ub2 gene as one chain; source: E. coli Rosetta (DE3), pET26b, purified (heat step, ResourceS, Superdex75)
Test: SPR; untagged LRM1-UMI or UDM2ΔC covalently immobilised on CM5 by amine coupling (10 mM sodium acetate pH 4.0 or 4.5); Ub2 species injected; HBS-P, 25 °C; steady-state fit, 1:1 model
Conditions: both partners purified

Kd [µM] | Binder
145 | EETEINFTQKLIDLEHLLFERHKQEEQDRLLALQLQKEVDKEQM (domain or fragment, human, UniProt Q8IYW5 419-462, looked up, RNF168, human, residues 419-462 (UDM2ΔC); also called UDM2ΔC (untagged); UAD–MIU2; source: E. coli Rosetta (DE3), purified (Glutathione Sepharose, HRV3C cleavage, ResourceQ, Superdex75)) [untagged RNF168 UDM2ΔC (residues 419-462)]
200 | untagged RNF168 LRM1-UMI (residues 110-166) (domain or fragment, human, UniProt Q8IYW5 110-166, looked up, Printed as untagged; also called LRM1–UMI (untagged); source: E. coli Rosetta (DE3), purified) LSKPGELRREYEEEISKVAAERRASEEEENKASEEYIQRLLAEEEEEEKRQAEKRRR

Target: T1, Met1-linked diUb (M1-Ub2)
Test: SPR; GST-fused RNF168 domains captured by immobilised anti-GST antibody on CM5 chip (1000-1500 RU); Ub2 species injected 60 s at 10 µL per min; HBS-P (10 mM HEPES-Na pH 7.4, 150 mM NaCl, 0.05% P20), 25 °C; steady-state fit, 1:1 model
Conditions: both partners purified

Binder | Kd [µM]
GST-tagged RNF168 UDM2 (residues 419-487) (domain or fragment, human, UniProt Q8IYW5 419-487, looked up, RNF168, human, residues 419-487 (UDM2); source: E. coli Rosetta (DE3), purified (Glutathione Sepharose)) EETEINFTQKLIDLEHLLFERHKQEEQDRLLALQLQKEVDKEQMVPNRQKGSPDEYHLRATSSPPDKVL | 238
LFERHKQEEQDRLLALQLQKEVDKEQM (domain or fragment, human, UniProt Q8IYW5 436-462, looked up, RNF168, human, residues 436-462 (MIU2); source: E. coli Rosetta (DE3), purified (Glutathione Sepharose)) [GST-tagged RNF168 MIU2 (residues 436-462)] | 235
AEKRRRAMEEQLKSDEELARKLSIDINNFCEGSI (domain or fragment, human, UniProt Q8IYW5 161-194, looked up, RNF168, human, residues 161-194 (MIU1 alone); This construct is not in the methods' list of constructs; its limits stand in the results only; also called MIU1 alone; source: E. coli Rosetta (DE3), purified (Glutathione Sepharose)) [GST-tagged RNF168 MIU1 (residues 161-194)] | 233
GST-tagged RNF168 LRM1 (L116A)-UMI (domain or fragment, human, UniProt Q8IYW5 110-166, looked up, source: E. coli Rosetta (DE3), purified (Glutathione Sepharose)) LSKPGEARREYEEEISKVAAERRASEEEENKASEEYIQRLLAEEEEEEKRQAEKRRR | 206
GST-tagged RNF168 LRM1-UMI (L149A) (domain or fragment, human, UniProt Q8IYW5 110-166, looked up, source: E. coli Rosetta (DE3), purified (Glutathione Sepharose)) LSKPGELRREYEEEISKVAAERRASEEEENKASEEYIQRALAEEEEEEKRQAEKRRR | 1150
GST-tagged RNF168 LRM1 (Y120A)-UMI (domain or fragment, human, UniProt Q8IYW5 110-166, looked up, source: E. coli Rosetta (DE3), purified (Glutathione Sepharose)) LSKPGELRREAEEEISKVAAERRASEEEENKASEEYIQRLLAEEEEEEKRQAEKRRR | 236
GST-tagged RNF168 LRM1-UMI (S142A) (domain or fragment, human, UniProt Q8IYW5 110-166, looked up, source: E. coli Rosetta (DE3), purified (Glutathione Sepharose)) LSKPGELRREYEEEISKVAAERRASEEEENKAAEEYIQRLLAEEEEEEKRQAEKRRR | 965
GST-tagged RNF168 LRM1-UMI (residues 110-166) (domain or fragment, human, UniProt Q8IYW5 110-166, looked up, Cloned into pCold-GST; also called N-terminal part of UDM1; source: E. coli Rosetta (DE3), purified (Glutathione Sepharose)) LSKPGELRREYEEEISKVAAERRASEEEENKASEEYIQRLLAEEEEEEKRQAEKRRR | 231

Continued, values first:

Kd [µM] | Binder
221 | EETEINFTQKLIDLEHLLFERHKQEEQDRLLALQLQKEVDKEQM (domain or fragment, human, UniProt Q8IYW5 419-462, looked up, RNF168, human, residues 419-462 (UDM2ΔC); also called UAD–MIU2; source: E. coli Rosetta (DE3), purified (Glutathione Sepharose)) [GST-tagged RNF168 UDM2ΔC (residues 419-462)]
214 | EETEINFTQKLIDLRHLLFERHKQEEQDRLLALQLQKEVDKEQM (domain or fragment, human, UniProt Q8IYW5 419-462, looked up, RNF168, human, residues 419-462 (UDM2ΔC) with E433R; source: E. coli Rosetta (DE3), purified (Glutathione Sepharose)) [GST-tagged RNF168 UDM2ΔC (E433R)]
160 | EETEINFTQKLIDLEHLTFERHKQEEQDRLLALQLQKEVDKEQM (domain or fragment, human, UniProt Q8IYW5 419-462, looked up, RNF168, human, residues 419-462 (UDM2ΔC) with L436T; source: E. coli Rosetta (DE3), purified (Glutathione Sepharose)) [GST-tagged RNF168 UDM2ΔC (L436T)]
495 | EETEINFTQKLIDLEHLLFEAHKQEEQDRLLALQLQKEVDKEQM (domain or fragment, human, UniProt Q8IYW5 419-462, looked up, RNF168, human, residues 419-462 (UDM2ΔC) with R439A; source: E. coli Rosetta (DE3), purified (Glutathione Sepharose)) [GST-tagged RNF168 UDM2ΔC (R439A)]
306 | SEEEENKASEEYIQRLLAEEEEEEKRQAEKRRR (domain or fragment, human, UniProt Q8IYW5 134-166, looked up, Cloned into pCold-GST; source: E. coli Rosetta (DE3), purified (Glutathione Sepharose)) [GST-tagged RNF168 UMI (residues 134-166)]

Target: T1, Met1-linked diUb (M1-Ub2)
Test: pull-down; 100 µg His6-fused RNF168 on Ni-NTA beads, 15 µg Ub2 species, 25 mM Tris-HCl pH 8.0, 20 mM imidazole, 0.1% Triton X-100, 100 mM NaCl, on ice 2 h; SDS-PAGE, Coomassie (Supplementary Fig. 1a)
Conditions: both partners purified

binding result | Binder
binds | His6-fused RNF168 UMI-MIU1 (residues 134-188) (domain or fragment, human, UniProt Q8IYW5 134-188, looked up, source: E. coli, purified (Ni-NTA, then as UDM2ΔC)) SEEEENKASEEYIQRLLAEEEEEEKRQAEKRRRAMEEQLKSDEELARKLSIDINN
